Laboratory results published in patent US12649008B2, “Peptide receptor radionuclide therapy” (The Regents of the University of California, priority 2020, dated 2026).
Read-outs that look alike come from different tables or passages of the source.

Experiments:
mouse serum proteins = assay: Serum protein (albumin) binding by ultrafiltration, mouse serum; format: in vitro ADME; settings: 37° C.
Method: The devices were pre-treated with PBS containing Tween 20 (5% v/v) as disclosed in Hausner 2007, followed by triplicate rinses with PBS. An aliquot of each formulated radiotracer in PBS (≤25 μL, 20-60 KBq) was thoroughly mixed with 0.5 mL serum at 37° C. in a microfuge tube. The mixture was incubated at 37° C. for 5 min and an aliquot (50 μL) of was transferred to a tube for γ-counting. The remaining sample was transferred to a Centrifree Ultrafiltration device and centrifuged for 40 min. at 1500×g at ambient temperature (20-24° C.). An aliquot (50 μL) of the filtrate was transferred to a tube for γ-counting. For each radiotracer, a blank was run using 0.5 mL PBS/Tween 20 (5% v/v) instead of serum (n=4) to determine non-specific binding. Following γ-counting, the protein-bound radioactivity was calculated by subtracting the counts measured in the filtrate aliquot (i.e., not protein bound) from the counts in the corresponding serum aliquot. The data are expressed as mean±standard deviation of fraction of radioactivity bound to protein after subtraction of non-specific binding determined in the blank.

[1] = Biodistribution in mice bearing BxPC-3 tumors; format: in vivo; settings: female, nu/nu nude, mouse, iv, total radioactivity; for tissue uptake at 1 h: 1 h p.i.; for tissue uptake at 4 h: 4 h p.i.; for tissue uptake at 24 h: 24 h p.i.; for tissue uptake at 48 h: 48 h p.i.; for tissue uptake at 72 h: 72 h p.i.
Method: (§1) Female nu/nu nude mice (6-8 weeks old) were purchased from Charles River Laboratories (Wilmington, MA, USA) and handled according to the UC Davis Institutional Animal Care and Use Committee. BxPC-3 cells (5×10^6) in 100 μl 1:1 GFR-Matrigel: serum-free RPMI were implanted subcutaneously into the left shoulder flank and allowed to grow for approximately 2 weeks (therapy study) and 3 weeks (0.5-1 cm in diameter, for imaging and biodistribution studies). All cells were evaluated with flow cytometry before injection to confirm integrin expression levels. Food and water were available ad libitum.
(§2) For blocking studies, respective non-chelated cold peptide (30 mg/kg, 10 mg/mL (DOTA-5G) and 48 mg/kg, 16 mg/mL (DOTA-ABM-5G) solution in PBS) was injected 10 min. before the formulated radiotracer. At each time point, the mice (n=3/time point/radiotracer) were anesthetized and sacrificed. The tissues were collected, rinsed with PBS, and the radioactivity of each measured with a gamma counter. Radioactivity concentrations were calibrated, decay-corrected, and expressed as percent of injected dose per gram of tissue (% ID/g).

BxPC-3 (αvβ6 (+)) tumors = assay: Biodistribution in mice bearing BxPC-3 tumors; format: in vivo
Method: as §1, §2

[2] = BxPC-3 tumor, read-out: uptake BxPC-3 tumor
[3] = bladder, read-out: uptake Bladder
[4] = gall bladder, read-out: uptake Gall Bladder
[5] = kidneys, read-out: uptake Kidneys
[6] = large intestines, read-out: uptake Lg Intestines
[7] = muscle, read-out: uptake Muscle
[8] = pancreas, read-out: uptake Pancreas
[9] = small intestines, read-out: uptake Sm Intestines
[10] = spleen, read-out: uptake Spleen
[11] = stomach, read-out: uptake Stomach

With CNC(=O)C(CCCCNC(=O)C(CC(=O)O)NC(=O)CCCNC(=O)CCCc1ccc(I)cc1)NC(=O)CN1CCN2CCN3CCN(CC1)CC(=O)[O][177Lu]([O]C(=O)C2)[O]C(=O)C3 (stereo not drawn) [[^177Lu]Lu DOTA-ABM-5G] the “albumin (serum protein) binding” value (mouse serum proteins) was 54.4±2.8%, the tissue uptake at 1 h [1, 2] was 4.54 ± 0.42 %ID/g and the tissue uptake at 4 h [1, 2] was 7.15 ± 3.04 %ID/g. For the same compound, the tissue uptake at 24 h [1, 2] was 5.25 ± 0.71 %ID/g, the tissue uptake at 48 h [1, 2] was 5.12 ± 0.47 %ID/g and the tissue uptake at 72 h [1, 2] was 5.29 ± 0.75 %ID/g. For the same compound, the tissue uptake at 1 h [1, 3] was 6.75 ± 2.39 %ID/g, the tissue uptake at 24 h [1, 3] was 2.91 ± 0.16 %ID/g and the tissue uptake at 48 h [1, 3] was 2.69 ± 0.33 %ID/g. For the same compound, the tissue uptake at 72 h [1, 3] was 3.29 ± 0.63 %ID/g, the tissue uptake at 1 h ([1]; blood, read-out: uptake Blood) was 5.36 ± 0.71 %ID/g and the tissue uptake at 24 h ([1]; blood, read-out: uptake Blood) was 0.08 ± 0.01 %ID/g. It also gave a tissue uptake at 48 h ([1]; blood, read-out: uptake Blood) of 0.02 %ID/g, a tissue uptake at 72 h ([1]; blood, read-out: uptake Blood) of 0.01 %ID/g and a tissue uptake at 1 h ([1]; bone, read-out: uptake Bone) of 0.66 ± 0.15 %ID/g. It also gave a tissue uptake at 24 h ([1]; bone, read-out: uptake Bone) of 0.27 ± 0.08 %ID/g, a tissue uptake at 48 h ([1]; bone, read-out: uptake Bone) of 0.16 ± 0.19 %ID/g and a tissue uptake at 72 h ([1]; bone, read-out: uptake Bone) of 0.19 ± 0.13 %ID/g. It also gave a tissue uptake at 1 h ([1]; brain, read-out: uptake Brain) of 0.14 ± 0.01 %ID/g, a tissue uptake at 24 h ([1]; brain, read-out: uptake Brain) of 0.04 ± 0.01 %ID/g and a tissue uptake at 48 h ([1]; brain, read-out: uptake Brain) of 0.02 %ID/g. For the same compound, the tissue uptake at 72 h ([1]; brain, read-out: uptake Brain) was 0.03 %ID/g, the tissue uptake at 1 h [1, 4] was 1.72 ± 0.46 %ID/g and the tissue uptake at 24 h [1, 4] was 1.11 ± 0.71 %ID/g. The tissue uptake at 48 h [1, 4] was 0.71 ± 0.13 %ID/g, the tissue uptake at 72 h [1, 4] was 1.09 ± 0.61 %ID/g and the tissue uptake at 1 h ([1]; heart, read-out: uptake Heart) was 2.05 ± 0.37 %ID/g. It also gave a tissue uptake at 24 h ([1]; heart, read-out: uptake Heart) of 0.71 ± 0.05 %ID/g, a tissue uptake at 48 h ([1]; heart, read-out: uptake Heart) of 0.64 ± 0.06 %ID/g and a tissue uptake at 72 h ([1]; heart, read-out: uptake Heart) of 0.46 ± 0.11 %ID/g. It also gave a tissue uptake at 1 h [1, 5] of 20.9 ± 3.1 %ID/g, a tissue uptake at 24 h [1, 5] of 12.3 ± 1.24 %ID/g and a tissue uptake at 48 h [1, 5] of 10.1 ± 1.04 %ID/g. The tissue uptake at 72 h [1, 5] was 8.84 ± 1.15 %ID/g, the tissue uptake at 1 h [1, 6] was 6.31 ± 1.86 %ID/g and the tissue uptake at 4 h [1, 6] was under 7 %ID/g. It also gave a tissue uptake at 24 h [1, 6] of 3.63 ± 0.09 %ID/g, a tissue uptake at 48 h [1, 6] of 3.13 ± 0.53 %ID/g and a tissue uptake at 72 h [1, 6] of 3.01 ± 0.44 %ID/g. It also gave a tissue uptake at 1 h ([1]; liver, read-out: uptake Liver) of 1.05 ± 0.05 %ID/g, a tissue uptake at 4 h ([1]; liver, read-out: uptake Liver) of under 1 %ID/g and a tissue uptake at 24 h ([1]; liver, read-out: uptake Liver) of 0.22 ± 0.01 %ID/g. The tissue uptake at 48 h ([1]; liver, read-out: uptake Liver) was 0.16 ± 0.02 %ID/g, the tissue uptake at 72 h ([1]; liver, read-out: uptake Liver) was 0.12 ± 0.01 %ID/g and the tissue uptake at 1 h ([1]; lung, read-out: uptake Lung) was 2.68 ± 0.21 %ID/g. It also gave a tissue uptake at 24 h ([1]; lung, read-out: uptake Lung) of 1.1 ± 0.15 %ID/g, a tissue uptake at 48 h ([1]; lung, read-out: uptake Lung) of 0.68 ± 0.08 %ID/g and a tissue uptake at 72 h ([1]; lung, read-out: uptake Lung) of 0.53 ± 0.1 %ID/g. For the same compound, the tissue uptake at 1 h [1, 7] was 0.96 ± 0.24 %ID/g, the tissue uptake at 24 h [1, 7] was 0.52 ± 0.08 %ID/g and the tissue uptake at 48 h [1, 7] was 0.52 ± 0.03 %ID/g. It also gave a tissue uptake at 72 h [1, 7] of 0.42 ± 0.02 %ID/g, a tissue uptake at 1 h [1, 8] of 0.92 ± 0.07 %ID/g and a tissue uptake at 24 h [1, 8] of 0.6 ± 0.11 %ID/g. It also gave a tissue uptake at 48 h [1, 8] of 0.5 ± 0.09 %ID/g, a tissue uptake at 72 h [1, 8] of 0.36 ± 0.12 %ID/g and a tissue uptake at 1 h ([1]; skin, read-out: uptake Skin) of 2.16 ± 0.35 %ID/g. For the same compound, the tissue uptake at 24 h ([1]; skin, read-out: uptake Skin) was 1.49 ± 0.57 %ID/g, the tissue uptake at 48 h ([1]; skin, read-out: uptake Skin) was 0.95 ± 0.05 %ID/g and the tissue uptake at 72 h ([1]; skin, read-out: uptake Skin) was 1.08 ± 0.16 %ID/g. It also gave a tissue uptake at 1 h [1, 9] of 5.46 ± 0.54 %ID/g, a tissue uptake at 24 h [1, 9] of 3.02 ± 0.32 %ID/g and a tissue uptake at 48 h [1, 9] of 1.74 ± 0.22 %ID/g. The tissue uptake at 72 h [1, 9] was 0.71 ± 0.16 %ID/g, the tissue uptake at 1 h [1, 10] was 0.75 ± 0.03 %ID/g and the tissue uptake at 24 h [1, 10] was 0.12 ± 0.01 %ID/g. It also gave a tissue uptake at 48 h [1, 10] of 0.1 ± 0.02 %ID/g, a tissue uptake at 72 h [1, 10] of 0.1 ± 0.01 %ID/g and a tissue uptake at 1 h [1, 11] of 9.16 ± 0.58 %ID/g. The tissue uptake at 24 h [1, 11] was 7.55 ± 1.45 %ID/g, the tissue uptake at 48 h [1, 11] was 5.49 ± 0.27 %ID/g and the tissue uptake at 72 h [1, 11] was 4.76 ± 1.22 %ID/g. The BxPC-3/kidney ratio (BxPC-3 (αvβ6 (+)) tumors; 1 h p.i.) was 0.22±0.05, the BxPC-3/large intestine ratio (BxPC-3 (αvβ6 (+)) tumors; 1 h p.i.) was 0.77±0.25 and the BxPC-3/stomach ratio (BxPC-3 (αvβ6 (+)) tumors; 1 h p.i.) was 0.50±0.08. For the same compound, the “uptake Blood” value (BxPC-3 (αvβ6 (+)) tumors; 1 h p.i.) was 5.36±0.71 % ID/g, the “uptake BxPC-3 tumor” value (BxPC-3 (αvβ6 (+)) tumors; 1 h p.i.) was 4.54±0.42 % ID/g and the “uptake Kidneys” value (BxPC-3 (αvβ6 (+)) tumors; 1 h p.i.) was 20.89±3.1 % ID/g. For the same compound, the “uptake Stomach” value (BxPC-3 (αvβ6 (+)) tumors; 1 h p.i.) was 9.16±0.58 % ID/g, the BxPC-3/kidney ratio (BxPC-3 (αvβ6 (+)) tumors; 72 h p.i.) was 0.60±0.02 and the BxPC-3/large intestine ratio (BxPC-3 (αvβ6 (+)) tumors; 72 h p.i.) was 1.77±0.26. For the same compound, the BxPC-3/stomach ratio (BxPC-3 (αvβ6 (+)) tumors; 72 h p.i.) was 1.16±0.30, the “uptake Blood” value (BxPC-3 (αvβ6 (+)) tumors; 72 h p.i.) was 0.01±0.00 % ID/g and the “uptake BxPC-3 tumor” value (BxPC-3 (αvβ6 (+)) tumors; 72 h p.i.) was 5.29±0.75 % ID/g. The “uptake Kidneys” value (BxPC-3 (αvβ6 (+)) tumors; 72 h p.i.) was 8.84±1.15 % ID/g, the “uptake Stomach” value (BxPC-3 (αvβ6 (+)) tumors; 72 h p.i.) was 4.76±1.22 % ID/g and the “uptake in BxPC-3 tumor as compared to [^177Lu]Lu DOTA-5G” value (BxPC-3 (αvβ6 (+)) tumors; at all times (1-72 h)) was “at least 4 fold”.
